For data set [1], the target named is T1, BmLARK (Bombyx mori (cDNA from Bm12 cells), UniProt Q5I7M6 1-343). The data set can be described thus: EMSA. On the technique in general: A gel shift assay detects complexes by their altered migration in electrophoresis.
The target of data set [2] is T1, BmLARK. The data set can be described thus: MST.
In data set [3] the target is T2, MmLARK (Mus musculus, UniProt Q8C7Q4 1-361).
T2 sequence: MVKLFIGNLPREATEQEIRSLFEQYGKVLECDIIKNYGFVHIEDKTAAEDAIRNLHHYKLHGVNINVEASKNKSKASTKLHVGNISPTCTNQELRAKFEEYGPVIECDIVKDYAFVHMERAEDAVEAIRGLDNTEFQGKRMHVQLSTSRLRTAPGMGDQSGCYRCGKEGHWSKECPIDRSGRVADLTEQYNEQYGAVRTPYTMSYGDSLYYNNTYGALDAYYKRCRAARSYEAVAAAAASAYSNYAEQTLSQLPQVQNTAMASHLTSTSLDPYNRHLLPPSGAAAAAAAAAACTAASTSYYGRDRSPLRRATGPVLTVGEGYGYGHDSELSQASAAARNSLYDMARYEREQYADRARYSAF
The data set can be described thus: EMSA.

For data set [4], the target named is HsLARK (Homo sapiens, UniProt Q9BWF3 1-364). Briefly: EMSA.
Data set [5] has as its target BmLARK ZnF (Bombyx mori, UniProt Q5I7M6 155-343). The data set can be described thus: EMSA.
For data set [6], the target named is DmLARK (Drosophila melanogaster, UniProt Q94901 1-352). The data set can be described thus: EMSA.
Sequence of DmLARK (Q94901 whole entry): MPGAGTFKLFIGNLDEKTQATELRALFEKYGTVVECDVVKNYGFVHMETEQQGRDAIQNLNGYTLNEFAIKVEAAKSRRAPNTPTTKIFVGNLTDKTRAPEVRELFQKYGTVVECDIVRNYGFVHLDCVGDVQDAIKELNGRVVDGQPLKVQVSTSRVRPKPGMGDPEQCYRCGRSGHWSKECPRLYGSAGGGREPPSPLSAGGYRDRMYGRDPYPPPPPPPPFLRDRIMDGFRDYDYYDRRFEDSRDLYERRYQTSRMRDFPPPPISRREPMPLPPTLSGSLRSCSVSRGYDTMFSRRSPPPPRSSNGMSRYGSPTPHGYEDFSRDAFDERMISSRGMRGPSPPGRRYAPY

Consider eleven molecules from publication PMC6698653.

As a reminder, the Kd is the concentration at which binding is half-saturated.

As to GGTACTGTGATGCAAGTGCGGCAGTGAGCGCAGTGTGG (ssDNA) [558 ssDNA (mutant G4)], the binding result in data set [1] is “no binding”. For the molecule GTGTCGCAGTGCCACAGTGTGCTGAGCAGTGTCCGCG (ssDNA) [142 ssDNA (mutant G4)], in data set [1], the binding result is listed as “no binding”.

In turn, GGGTCGCGGGGCCACGGGGGGCGGGGCGGGGGCCGCG (structured_DNA) [142 G4] gave a Kd in data set [2] of 107 nM. Turning to TTATGGGGAGGGTGGGGAGGGTGGGGAAGG (structured_DNA) [c-MYC G4], the binding result in data set [3] and in data set [4] was “binds” throughout. This molecule also came in with a Kd in data set [2] of 269 nM. Take GGCAGTGTCAGTGAGACAGAGCAGTGTGTGCGG (ssDNA) [159 ssDNA (mutant G4)]: the binding result in data set [1] is on record as “no binding”. On to CCAGTGCGATGCGCGAGTGAGCCGAGTAGCAGTGCAACAA (ssDNA) [BmPOUM2 ssDNA (mutant G4)], for which the binding result in data set [1] is given as “no binding”. For the molecule GGCGGGGGCGGGGGGACGGGGCGGGGGGGGCGG (structured_DNA) [159 G4], the Kd in data set [2] came to 114 nM. This counts as sub-micromolar.

The molecule GGTACGGGGGTGCAGGGGCGGCGGGGGGCGCGGGGTGG (structured_DNA) [558 G4] showed a Kd in data set [2] of 120 nM. This Kd and that of the molecule before are within 1.5-fold of each other. As to CCAGTGCGGGGCGCGAGGGGGCCGAGGGGCGGGGCAACAA (structured_DNA) [BmPOUM2 G4], the binding result was “no binding” in data set [5], “binds” in data set [6], “binds” in data set [3] and “binds” in data set [4]. Besides, binding in data set [2] was put at a Kd of 111 nM. TTTTTCGGGCGGGCGCGAGGGAGGGG (structured_DNA) [c-kit G4]: the binding result in data set [3] and in data set [4] was “binds” in each case. This molecule registered a Kd in data set [2] of 126 nM. For GCGAGGGCGGGGGAGAGGGGAGGGGCGCG (structured_DNA) [HIF-1a G4], the Kd in data set [2] was 131 nM. In other words, the sub-micromolar range.
